Results: publication PMC3922912, “Structural basis of stereospecific reduction by quinuclidinone reductase” (AMB Express, 2014)
Blank lines part the entries; values can stand above or below the compound they belong to.

Columns and labels:
[1] = target: NADPH-dependent 3-quinuclidinone reductase (RrQR) from Rhodotorula rubra (Rhodotorula rubra); experiment: crystal structure; RrQR in complex with NADPH; crystals grown at 278 K, sitting-drop vapor diffusion, 100 mM CHES (pH 10.0), 30% PEG8000, 3% sucrose; four protomers in the asymmetric unit; 2.2 Å
[2] = target: T1, NADPH-dependent 3-quinuclidinone reductase (RrQR) (Rhodotorula mucilaginosa, UniProt B9ZZZ6); experiment: X-ray crystal structure, […] Å; assay type: binding; details: crystals grown at 278 K, CHES pH 10.0, PEG8000; one NADPH per protomer
T1 construct: gene rqr; homotetramer; crystal model residues 7-272, residues 1-6 disordered

O=C1CN2CCC1CC2 = experiment: purified protein; assay type: biochemical, Rhodotorula mucilaginosa; details: 350 μM NADPH, 200 mM potassium phosphate pH 7.0, 37°C, substrate as HCl salt

- stoichiometry N [1]: 4
Compound: NADPH-dependent 3-quinuclidinone reductase (RrQR) from Rhodotorula rubra (enzyme)

Compound: NC(=O)C1=CN([C@@H]2O[C@H](COP(=O)(O)OP(=O)(O)OC[C@H]3O[C@@H](n4cnc5c(N)ncnc54)[C@H](OP(=O)(O)O)[C@@H]3O)[C@@H](O)[C@H]2O)C=CC1 [NADPH]
- X-ray crystal structure, 2.2 Å [2]: A clear electron density for NADPH is observed in each protomer

Compound: NADPH-dependent 3-quinuclidinone reductase (RrQR) (Rhodotorula mucilaginosa; N173A)
- Km (O=C1CN2CCC1CC2): 100 mM
- Vmax (O=C1CN2CCC1CC2): 11.6 µmol/min/mg
- kcat (O=C1CN2CCC1CC2): 5.62 s⁻¹
